Measured values taken from paper PMC4585913, “Crystal structure of Streptococcus pneumoniae pneumolysin provides key insights into early steps of pore formation” (Scientific Reports, 2015).

Target: the molecule itself
Assay: crystal structure; PLY 10.5 mg/ml co-crystallised with 5 mM KAu(CN)2 in 10% PEG 8000, 10% glycerol, 10% ethylene glycol, 100 mM HEPES pH 7.5; space group P212121, one molecule in the asymmetric unit; linear oligomer formed by crystal packing; 2.9 A

B1: Pneumolysin (Hexahis-PLY, wild type) (natural protein, Streptococcus pneumoniae)
chain: ANKAVNDFILAMNYDKKKLLTHQGESIENRFIKEGNQLPDEFVVIERKKRSLSTNTSDISVTATNDSRLYPGALLVVDETLLENNPTLLAVDRAPMTYSIDLPGLASSDSFLQVEDPSNSSVRGAVNDLLAKWHQDYGQVNNVPARMQYEKITAHSMEQLKVKFGSDFEKTGNSLDIDFNSVHSGEKQIQIVNFKQIYYTVSVDAVKNPGDVFQDTVTVEDLKQRGISAERPLVYISSVAYGRQVYLKLETTSKSDEVEAAFEALIKGVKVAPQTEWKQILDNTEVKAVILGGDPSSGARVVTGKVDMVEDLIQEGSRFTADHPGLPISYTTSFLRDNVVATFQNSTDYVETKVTAYRNGDLLLDHSGAYVAQYYITWNELSYDHQGKEVLTPKAWDRNGQDLTAHFTTSIPLKGNVRNLSVKIRECTGLAWEWWRTVYEKTDLPLVRKRTISIWGTTLYPQVEDKVEN
notes: Pneumolysin (PLY) of Streptococcus pneumoniae, wild type, cloned into pQE-30; the domains described span residues 1 to 470; The crystals run on SDS-AGE were grown without gold; Three residues of the His tag/linker are visible at the N-terminus of the model; It is written here as m1; also called native PLY; not shown: His6, N-terminal, kept
**Q.** Does B1 bind?
**A.** Result: binds
